One molecule from US12545745B2, “Method for treating a degenerative neurological disorders comprising administering ASM inhibitor” (KYUNGPOOK NATIONAL UNIVERSITY INDUSTRY-ACADEMIC COOPERATION …, priority 2013, dated 2026) can be followed below.

Assay [1] concerns depression-induced animal model (WT/RSD). In words: Depression behaviour tests (Open field, Dark & Light, Tail suspension, Force swim) in RSD mice. The assay is classed as in vivo, mouse. The settings on record: 50 mg/kg i.p. twice weekly, vs PBS, FIG. 59A-59D. The protocol: For depression-induced animal model, C57BL/6 mice (Charles River, UK) were used as those with depression by inducing Repeated Social Defeat (RSD) stress for 10 days. Repeated Social Defeat (RSD) stress was induced by placing two male, 6-8 week-old C57BL/6 mice with one male, 6-8 week-old CD-1 mouse (aggressive intruder mouse) in the same cage for 10 days, 2 hours daily. After 10 days, depression of C57BL/6 mice was confirmed through the depression behavior test. To confirm the therapeutic effect of ASM inhibitor (Smpd1 miR RNAi) in the depressed animal model, 6-week-old male C57BL/6 mice were injected with said ASM inhibitor via tail vein injection twice weekly in a dosage of 50 μg/mice for 4 weeks prior to the induction of depression. Four weeks later, behavioral analysis was performed after inducing Repeated Social Defeat (RSD) stress for 10 days, followed by obtaining plasma samples of the mice (FIG. 47A). To determine whether ASM inhibition by Smpd1 miR RNAi injection leads to the improvement of depression in a depression-induced animal model, an Open field test, a Dark & Light test, a Tail suspension test and Force swim test were performed, respectively. For depression-induced animal model, C57BL/6 mice (Charles River, UK) were used as those with depression by inducing Repeated Social Defeat (RSD) stress for 10 days. […]

The target in assay [2] is T1, ASM (Mus musculus, UniProt Q04519).
T1 construct: from tissue; host or cells: mouse serum/plasma and brain tissue (APP/PS1, RSD-stressed C57BL/6, FUS R521C mice)
T1 sequence (Q04519 45-627): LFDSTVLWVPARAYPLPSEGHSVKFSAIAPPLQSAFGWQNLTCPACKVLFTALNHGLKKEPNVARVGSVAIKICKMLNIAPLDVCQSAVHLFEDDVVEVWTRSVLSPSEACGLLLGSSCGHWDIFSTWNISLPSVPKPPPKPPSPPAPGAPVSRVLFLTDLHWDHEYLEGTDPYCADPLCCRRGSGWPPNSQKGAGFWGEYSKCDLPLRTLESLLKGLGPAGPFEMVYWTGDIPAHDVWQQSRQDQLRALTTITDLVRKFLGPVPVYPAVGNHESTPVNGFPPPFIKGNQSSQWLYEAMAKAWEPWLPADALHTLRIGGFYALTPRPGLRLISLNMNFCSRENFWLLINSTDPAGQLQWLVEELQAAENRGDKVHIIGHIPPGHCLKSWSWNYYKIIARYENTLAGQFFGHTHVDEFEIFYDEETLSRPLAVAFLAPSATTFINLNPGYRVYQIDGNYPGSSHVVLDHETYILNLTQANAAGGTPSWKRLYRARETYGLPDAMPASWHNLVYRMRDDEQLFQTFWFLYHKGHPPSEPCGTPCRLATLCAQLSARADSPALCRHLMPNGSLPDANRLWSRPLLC
Briefly: ASM activity in plasma of ALS animal model (FUS R521C mice). The class given is in vivo. The settings on record: 7-week-old ALS mice, 50 mg/kg i.p. twice weekly, vs PBS; FIG. 56B.

B1: ASM-ab 23A12C3: self-made monoclonal ASM antibody, Koma biotech; heavy chain SEQ ID NO. 29, light chain SEQ ID NO. 30 (antibody)
heavy: MGWSWIFLFLLSGTAGVHSEVQLQQSGPVLVKPGASVKMSCKASGYTFTDYYMNWVKQSHGKSLEWIGVINPYNDGTSYNQKFKGKATLTVDKSSSTAYMELNSLTSEDSAVYYCAREKLYYYGRDYAMDYWGQGTSVTVSSAKTTPPSVYPLAPGSAAQTNSMVTLGCLVKGYFPEPVTVTWNSGSLSSGVHTFPAVLQSDLYTLSSSVTVPSSTWPSQTVTCNVAHPASSTKVDKKIVPRDCGCKPCICTVPEVSSVFIFPPKPKDVLTITLTPKVTCVVVDISKDDPEVQFSWFVDDVEVHTAQTKPREEQINSTFRSVSELPIMHQDWLNGKEFKCRVNSAAFPAPIEKTISKTKGRPKAPQVYTIPPPKEQMAKDKVSLTCMITNFFPEDITVEWQWNGQPAENYKNTQPIMDTDGSYFVYSKLNVQKSNWEAGNTFTCSVLHEGLHNHHTEKSLSHSPGK
light: MSSAQFLGLLLLCFQGTRCDIQMTQTTSSLSASLGDRVTISCRSSQDISNYLNWCQQKPDGTVKLLIYYTSRLHSGVPSRFSGSGSGTDYSLTISNLEQEDIATYFCQQDNTLPYTFGGGTKLEIKRADAAPTVSIFPPSSEQLTSGGASVVCFLNNFYPKDINVKWKIDGSERQNGVLNSWTDQDSKDSTYSMSSTLTLTKDEYERHNSYTCEATHKTSTSPIVKSFNRNEC
modifications: 23A12C3_Heavy chain; 23A12C3_Light chain
notes: self-made monoclonal ASM antibody, Koma biotech; 30
With B1, the symptoms of depression result in assay [1] is reported as “significantly improve”. The “level of ASM activity in the plasma” value in assay [2] is listed as “remarkably low”.
